Results on two substances are retold here after paper PMC12888920, “MMP-9 regulates disulphide isomerase activity of TGM2 to enhance fusion glycoprotein-mediated syncytium formation of respiratory syncytial virus” (Protein & Cell, 2025).

What is called Kd is a measure of binding affinity in units of concentration. Lower therefore signals higher affinity.

For test [1], the target named is DS-Cav1 (RSV F prefusion conformation) (respiratory syncytial virus (strain not stated)) (UniProt P03420). The test is described as follows: BLI; ForteBio Octet; who was immobilised and buffer not told in the text shown; three biological replicates. (In general: Biolayer interferometry detects binding as a change in optical thickness at a sensor tip.)
Test [2] has as its target purified human MMP-9 (human) (UniProt P14780). Described as above.

purified human MMP-9 (human), sequence (P14780 20-707): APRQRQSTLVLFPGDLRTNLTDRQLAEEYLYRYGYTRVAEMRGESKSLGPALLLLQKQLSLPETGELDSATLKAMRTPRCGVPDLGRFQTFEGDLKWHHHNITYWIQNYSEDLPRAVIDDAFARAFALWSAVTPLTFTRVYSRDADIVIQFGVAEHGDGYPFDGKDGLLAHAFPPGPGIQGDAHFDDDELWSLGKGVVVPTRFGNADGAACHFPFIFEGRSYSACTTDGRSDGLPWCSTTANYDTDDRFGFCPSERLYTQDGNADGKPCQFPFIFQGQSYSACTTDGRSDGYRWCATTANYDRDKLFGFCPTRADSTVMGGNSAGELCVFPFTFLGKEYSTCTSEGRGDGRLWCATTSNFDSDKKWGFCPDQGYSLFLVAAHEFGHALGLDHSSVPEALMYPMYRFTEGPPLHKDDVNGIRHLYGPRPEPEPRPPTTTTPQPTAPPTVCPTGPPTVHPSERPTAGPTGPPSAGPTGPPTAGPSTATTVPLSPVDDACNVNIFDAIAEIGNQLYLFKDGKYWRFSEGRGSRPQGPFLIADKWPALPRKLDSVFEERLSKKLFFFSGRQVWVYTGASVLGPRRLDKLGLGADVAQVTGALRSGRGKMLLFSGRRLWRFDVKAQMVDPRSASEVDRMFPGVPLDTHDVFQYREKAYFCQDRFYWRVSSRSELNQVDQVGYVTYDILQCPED
purified human TGM2 (transglutaminase 2), sequence (P21980 whole entry): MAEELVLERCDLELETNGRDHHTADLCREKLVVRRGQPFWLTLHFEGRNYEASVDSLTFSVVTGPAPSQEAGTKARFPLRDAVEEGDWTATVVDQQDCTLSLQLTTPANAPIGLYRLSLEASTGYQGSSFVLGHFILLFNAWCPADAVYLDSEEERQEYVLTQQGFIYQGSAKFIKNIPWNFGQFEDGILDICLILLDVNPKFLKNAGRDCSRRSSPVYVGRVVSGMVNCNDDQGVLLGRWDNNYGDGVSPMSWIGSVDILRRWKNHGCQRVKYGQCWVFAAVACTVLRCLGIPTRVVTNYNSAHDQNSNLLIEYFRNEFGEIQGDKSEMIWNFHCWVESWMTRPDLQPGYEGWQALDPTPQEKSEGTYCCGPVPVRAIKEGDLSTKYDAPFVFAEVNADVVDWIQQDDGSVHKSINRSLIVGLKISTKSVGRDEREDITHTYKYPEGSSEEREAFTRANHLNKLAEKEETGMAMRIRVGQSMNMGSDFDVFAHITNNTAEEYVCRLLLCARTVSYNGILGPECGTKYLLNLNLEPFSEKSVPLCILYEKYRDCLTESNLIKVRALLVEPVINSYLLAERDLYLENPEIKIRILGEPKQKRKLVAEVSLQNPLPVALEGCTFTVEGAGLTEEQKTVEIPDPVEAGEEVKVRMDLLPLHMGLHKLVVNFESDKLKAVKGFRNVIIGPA

“purified human TGM2 (transglutaminase 2) (from UniProt P21980 1-687) (enzyme)” displayed a dissociation constant Kd in test [1] of 6.31 µM.
“DS-Cav1 (RSV F prefusion conformation) (from UniProt P03420 26-574) (natural protein)” came in with a Kd in test [2] of 0.146 µM.
